These results are taken from article PMC7321188.

Common to all, as to conditions: remark: other sources report otherwise
For assay [1], the target named is G2019S LRRK2-GFP (Parkinson's disease mutant of Leucine-Rich Repeat Kinase 2, GFP fusion) (UniProt Q5S007). The assay is described as follows: fluorescence fluctuation spectroscopy (number and brightness) by TIRF microscopy; TIRF, near the plasma membrane of live differentiated SH-SY5Y cells; brightness normalised to monomeric GFP.
For assay [2] the target is unchanged. The assay is described as follows: fluorescence fluctuation spectroscopy (number and brightness + photon counting histogram); two-photon confocal, cytosol of live differentiated SH-SY5Y cells at 37 °C; brightness normalised to monomeric GFP; LRRK2-GFP below 300 nM.
In assay [3] the target is WT LRRK2-GFP (Leucine-Rich Repeat Kinase 2, wild type, GFP fusion) (UniProt Q5S007). The assay is described as follows: fluorescence fluctuation spectroscopy (number and brightness) by TIRF microscopy; TIRF, near the plasma membrane of live differentiated SH-SY5Y cells; brightness normalised to monomeric GFP.

Consider “G2019S LRRK2-GFP (Parkinson's disease mutant of Leucine-Rich Repeat Kinase 2, GFP fusion), Q5S007 1-2527”, for which the normalized brightness (sample over the monomer control) stood at 2.5 in assay [1] and 2.1 in assay [2].

The substance “WT LRRK2-GFP (Leucine-Rich Repeat Kinase 2, wild type, GFP fusion), Q5S007 1-2527” displayed a normalized brightness (sample over the monomer control) in assay [3] of 2.5.
